Earlier results in PMC2884013.

Target: Glu78 (UniProt position 78, RISTVEHLNAA)
Experiment: kinetics
Details: Zn2+-bound wild-type enzyme

## UDP-3-O-(R-3-hydroxymyristoyl)-N-acetylglucosamine deacetylase (LpxC, EcLpxC) (Escherichia coli)
  pKa: 6.2 ± 0.2
